Reference: US20220332804A1 (CSL INNOVATION, published 2022)

Legend:
Test in all cases: SPR, antibody captured, C2 as analyte;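 note: biacore SPR at 37 °C, anti-C2 mAbs captured via goat anti-human IgG on CM5 chips, double-referenced sensorgrams fit to a 1:1 kinetic or steady-state model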
human C2 E324A = target: T1, human C2 E324A (human, UniProt P06681 21-752)
T1 sequence: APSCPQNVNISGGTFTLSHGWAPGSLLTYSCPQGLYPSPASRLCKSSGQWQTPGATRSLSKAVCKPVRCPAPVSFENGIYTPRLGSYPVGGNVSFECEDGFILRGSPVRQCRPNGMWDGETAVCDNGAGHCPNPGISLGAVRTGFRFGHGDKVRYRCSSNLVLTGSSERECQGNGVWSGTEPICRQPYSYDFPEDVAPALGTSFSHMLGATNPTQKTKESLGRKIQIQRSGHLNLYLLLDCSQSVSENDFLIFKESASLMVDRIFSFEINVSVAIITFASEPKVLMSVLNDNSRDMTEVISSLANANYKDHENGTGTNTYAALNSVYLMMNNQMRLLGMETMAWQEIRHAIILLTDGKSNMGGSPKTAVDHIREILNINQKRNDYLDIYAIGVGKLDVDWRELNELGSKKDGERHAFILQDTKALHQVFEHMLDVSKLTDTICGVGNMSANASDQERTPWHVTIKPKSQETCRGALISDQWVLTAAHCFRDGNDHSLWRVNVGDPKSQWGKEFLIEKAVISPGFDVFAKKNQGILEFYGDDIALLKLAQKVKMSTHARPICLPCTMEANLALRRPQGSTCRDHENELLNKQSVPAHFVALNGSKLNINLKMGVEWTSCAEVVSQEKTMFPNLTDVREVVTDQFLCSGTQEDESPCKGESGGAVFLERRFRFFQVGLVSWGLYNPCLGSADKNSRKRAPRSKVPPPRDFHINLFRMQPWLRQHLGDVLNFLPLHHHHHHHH

human C2 G427A = target: T2, human C2 G427A (human, UniProt P06681 21-752)
T2 sequence: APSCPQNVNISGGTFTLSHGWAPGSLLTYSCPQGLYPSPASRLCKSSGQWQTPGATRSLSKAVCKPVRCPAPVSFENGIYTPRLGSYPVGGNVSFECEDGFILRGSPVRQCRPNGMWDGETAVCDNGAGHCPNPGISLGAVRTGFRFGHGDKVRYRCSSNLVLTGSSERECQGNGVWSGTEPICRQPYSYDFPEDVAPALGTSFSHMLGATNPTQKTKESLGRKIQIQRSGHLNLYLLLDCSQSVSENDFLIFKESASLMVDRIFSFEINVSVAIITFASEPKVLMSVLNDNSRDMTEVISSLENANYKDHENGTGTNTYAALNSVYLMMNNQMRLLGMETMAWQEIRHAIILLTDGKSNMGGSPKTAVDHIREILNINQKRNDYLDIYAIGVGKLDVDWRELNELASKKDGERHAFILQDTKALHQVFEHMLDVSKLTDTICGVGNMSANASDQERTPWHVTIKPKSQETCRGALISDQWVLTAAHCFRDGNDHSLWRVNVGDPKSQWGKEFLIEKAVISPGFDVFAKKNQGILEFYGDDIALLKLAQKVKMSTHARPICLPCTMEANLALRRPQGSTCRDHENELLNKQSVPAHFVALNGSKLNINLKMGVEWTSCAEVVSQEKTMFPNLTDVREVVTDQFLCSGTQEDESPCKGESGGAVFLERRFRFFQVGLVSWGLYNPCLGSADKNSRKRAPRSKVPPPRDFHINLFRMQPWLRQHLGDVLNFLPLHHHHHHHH

human C2 A436S = target: T3, human C2 A436S (human, UniProt P06681 21-752)
T3 sequence: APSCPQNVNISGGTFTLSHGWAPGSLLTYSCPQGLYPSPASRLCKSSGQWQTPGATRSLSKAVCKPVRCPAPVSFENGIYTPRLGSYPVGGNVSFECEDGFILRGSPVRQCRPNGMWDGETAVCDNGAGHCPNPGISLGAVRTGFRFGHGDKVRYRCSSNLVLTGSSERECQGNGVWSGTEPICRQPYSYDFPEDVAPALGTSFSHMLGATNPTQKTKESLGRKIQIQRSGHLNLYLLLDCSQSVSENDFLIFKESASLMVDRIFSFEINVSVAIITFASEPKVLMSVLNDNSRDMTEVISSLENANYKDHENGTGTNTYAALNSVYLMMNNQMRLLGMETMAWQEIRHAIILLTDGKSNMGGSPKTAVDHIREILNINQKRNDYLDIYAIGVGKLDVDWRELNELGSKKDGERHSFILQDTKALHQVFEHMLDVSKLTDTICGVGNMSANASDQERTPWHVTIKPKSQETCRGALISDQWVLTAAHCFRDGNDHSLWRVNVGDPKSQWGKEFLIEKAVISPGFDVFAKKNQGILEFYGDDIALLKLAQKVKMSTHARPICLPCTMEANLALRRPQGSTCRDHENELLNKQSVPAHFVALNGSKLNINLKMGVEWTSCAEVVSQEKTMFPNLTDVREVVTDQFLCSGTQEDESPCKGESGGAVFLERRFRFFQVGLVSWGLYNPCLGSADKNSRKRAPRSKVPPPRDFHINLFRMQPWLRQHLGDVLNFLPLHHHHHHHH

human C2 E476A = target: T4, human C2 E476A (human, UniProt P06681 21-752)
T4 sequence: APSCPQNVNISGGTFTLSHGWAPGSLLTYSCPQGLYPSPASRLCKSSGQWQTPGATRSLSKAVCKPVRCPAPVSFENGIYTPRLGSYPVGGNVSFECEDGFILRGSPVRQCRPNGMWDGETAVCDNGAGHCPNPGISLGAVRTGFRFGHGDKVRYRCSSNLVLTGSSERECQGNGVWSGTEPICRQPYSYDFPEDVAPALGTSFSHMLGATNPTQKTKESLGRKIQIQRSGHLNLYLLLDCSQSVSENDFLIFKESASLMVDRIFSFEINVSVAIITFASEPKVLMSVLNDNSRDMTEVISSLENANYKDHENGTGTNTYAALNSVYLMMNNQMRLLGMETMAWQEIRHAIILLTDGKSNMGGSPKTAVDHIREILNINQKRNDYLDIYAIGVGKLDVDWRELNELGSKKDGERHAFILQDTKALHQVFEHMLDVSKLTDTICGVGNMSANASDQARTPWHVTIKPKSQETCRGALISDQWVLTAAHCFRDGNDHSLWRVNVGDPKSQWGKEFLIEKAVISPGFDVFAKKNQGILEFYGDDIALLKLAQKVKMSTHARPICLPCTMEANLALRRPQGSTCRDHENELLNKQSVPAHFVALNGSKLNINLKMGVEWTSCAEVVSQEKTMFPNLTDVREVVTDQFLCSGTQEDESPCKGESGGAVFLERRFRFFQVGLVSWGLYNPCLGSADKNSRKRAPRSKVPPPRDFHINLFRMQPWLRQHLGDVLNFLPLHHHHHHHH

B1: RF16-226 (antibody, human IgG4 S228P, lambda)
heavy: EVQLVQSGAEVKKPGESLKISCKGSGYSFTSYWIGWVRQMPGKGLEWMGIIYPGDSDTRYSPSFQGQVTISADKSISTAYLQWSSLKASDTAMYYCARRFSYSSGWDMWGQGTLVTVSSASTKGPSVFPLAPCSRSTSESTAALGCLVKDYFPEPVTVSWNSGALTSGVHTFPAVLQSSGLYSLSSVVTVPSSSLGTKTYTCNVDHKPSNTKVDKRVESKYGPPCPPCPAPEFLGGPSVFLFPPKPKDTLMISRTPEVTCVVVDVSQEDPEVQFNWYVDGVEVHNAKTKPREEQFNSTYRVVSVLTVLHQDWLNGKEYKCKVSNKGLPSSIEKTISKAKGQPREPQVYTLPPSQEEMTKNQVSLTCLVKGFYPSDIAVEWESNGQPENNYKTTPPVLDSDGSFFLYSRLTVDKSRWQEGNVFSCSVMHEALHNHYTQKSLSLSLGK
light: SYELTQPPSVSVSPGQTARITCSGDALTSKYVAWYQQKSGLAPLLVIYEDTRRPSGIPAKFSGSSSGSVATLTISGAHGDDEADYYCYSTDASGHQRVFGGGTKLTVLSQPKAAPSVTLFPPSSEELQANKATLVCLISDFYPGAVTVAWKADGSPVKAGVETTKPSKQSNNKYAASSYLSLTPEQWKSHRSYSCQVTHEGSTVEKTVAPTECS
notes: pH-dependent anti-C2 antibody from a phage display library; also called WT
Q: What does the source list for B1?
A: Kd (human C2 E324A): 12.2 nM; Kd (human C2 G427A): 4.2 nM; Kd (human C2 A436S): 6.2 nM; Kd (human C2 E476A): 19.6 nM
